B1: E267K: tighter-binding PI3Kγ mutant (protein, UniProt P48736 1-1102, looked up, variant E267K)
Phosphatidylinositol …: MELENYKQPVVLREDNCRRRRRMKPRSAAASLSSMELIPIEFVLPTSQRKCKSPETALLHVAGHGNVEQMKAQVWLRALETSVAADFYHRLGPHHFLLLYQKKGQWYEIYDKYQVVQTLDCLRYWKATHRSPGQIHLVQRHPPSEESQAFQRQLTALIGYDVTDVSNVHDDELEFTRRGLVTPRMAEVASRDPKLYAMHPWVTSKPLPEYLWKKIANNCIFIVIHRSTTSQTIKVSPDDTPGAILQSFFTKMAKKKSLMDIPESQSKQDFVLRVCGRDEYLVGETPIKNFQWVRHCLKNGEEIHVVLDTPPDPALDEVRKEEWPLVDDCTGVTGYHEQLTIHGKDHESVFTVSLWDCDRKFRVKIRGIDIPVLPRNTDLTVFVEANIQHGQQVLCQRRTSPKPFTEEVLWNVWLEFSIKIKDLPKGALLNLQIYCGKAPALSSKASAESPSSESKGKVQLLYYVNLLLIDHRFLLRRGEYVLHMWQISGKGEDQGSFNADKLTSATNPDKENSMSISILLDNYCHPIALPKHQPTPDPEGDRVRAEMPNQLRKQLEAIIATDPLNPLTAEDKELLWHFRYESLKHPKAYPKLFSSVKWGQQEIVAKTYQLLARREVWDQSALDVGLTMQLLDCNFSDENVRAIAVQKLESLEDDDVLHYLLQLVQAVKFEPYHDSALARFLLKRGLRNKRIGHFLFWFLRSEIAQSRHYQQRFAVILEAYLRGCGTAMLHDFTQQVQVIEMLQKVTLDIKSLSAEKYDVSSQVISQLKQKLENLQNSQLPESFRVPYDPGLKAGALAIEKCKVMASKKKPLWLEFKCADPTALSNETIGIIFKHGDDLRQDMLILQILRIMESIWETESLDLCLLPYGCISTGDKIGMIEIVKDATTIAKIQQSTVGNTGAFKDEVLNHWLKEKSPTEEKFQAAVERFVYSCAGYCVATFVLGIGDRHNDNIMITETGNLFHIDFGHILGNYKSFLGINKERVPFVLTPDFLFVMGTSGKKTSPHFQKFQDICVKAYLALRHHTNLLIILFSMMLMTGMPQLTSKEDIEYIRDALTVGKNEEDAKKYFLDQIEVCRDKGWTVQFNWFLHLVLGIKQGEKHSA
B2: R226A: PI3Kγ RBD mutant (protein, UniProt P48736 1-1102, looked up, variant R226A)
Phosphatidylinositol …: MELENYKQPVVLREDNCRRRRRMKPRSAAASLSSMELIPIEFVLPTSQRKCKSPETALLHVAGHGNVEQMKAQVWLRALETSVAADFYHRLGPHHFLLLYQKKGQWYEIYDKYQVVQTLDCLRYWKATHRSPGQIHLVQRHPPSEESQAFQRQLTALIGYDVTDVSNVHDDELEFTRRGLVTPRMAEVASRDPKLYAMHPWVTSKPLPEYLWKKIANNCIFIVIHASTTSQTIKVSPDDTPGAILQSFFTKMAKKKSLMDIPESQSEQDFVLRVCGRDEYLVGETPIKNFQWVRHCLKNGEEIHVVLDTPPDPALDEVRKEEWPLVDDCTGVTGYHEQLTIHGKDHESVFTVSLWDCDRKFRVKIRGIDIPVLPRNTDLTVFVEANIQHGQQVLCQRRTSPKPFTEEVLWNVWLEFSIKIKDLPKGALLNLQIYCGKAPALSSKASAESPSSESKGKVQLLYYVNLLLIDHRFLLRRGEYVLHMWQISGKGEDQGSFNADKLTSATNPDKENSMSISILLDNYCHPIALPKHQPTPDPEGDRVRAEMPNQLRKQLEAIIATDPLNPLTAEDKELLWHFRYESLKHPKAYPKLFSSVKWGQQEIVAKTYQLLARREVWDQSALDVGLTMQLLDCNFSDENVRAIAVQKLESLEDDDVLHYLLQLVQAVKFEPYHDSALARFLLKRGLRNKRIGHFLFWFLRSEIAQSRHYQQRFAVILEAYLRGCGTAMLHDFTQQVQVIEMLQKVTLDIKSLSAEKYDVSSQVISQLKQKLENLQNSQLPESFRVPYDPGLKAGALAIEKCKVMASKKKPLWLEFKCADPTALSNETIGIIFKHGDDLRQDMLILQILRIMESIWETESLDLCLLPYGCISTGDKIGMIEIVKDATTIAKIQQSTVGNTGAFKDEVLNHWLKEKSPTEEKFQAAVERFVYSCAGYCVATFVLGIGDRHNDNIMITETGNLFHIDFGHILGNYKSFLGINKERVPFVLTPDFLFVMGTSGKKTSPHFQKFQDICVKAYLALRHHTNLLIILFSMMLMTGMPQLTSKEDIEYIRDALTVGKNEEDAKKYFLDQIEVCRDKGWTVQFNWFLHLVLGIKQGEKHSA
B3: K256A: PI3Kγ RBD mutant (protein, UniProt P48736 1-1102, looked up, variant K256A)
Phosphatidylinositol …: MELENYKQPVVLREDNCRRRRRMKPRSAAASLSSMELIPIEFVLPTSQRKCKSPETALLHVAGHGNVEQMKAQVWLRALETSVAADFYHRLGPHHFLLLYQKKGQWYEIYDKYQVVQTLDCLRYWKATHRSPGQIHLVQRHPPSEESQAFQRQLTALIGYDVTDVSNVHDDELEFTRRGLVTPRMAEVASRDPKLYAMHPWVTSKPLPEYLWKKIANNCIFIVIHRSTTSQTIKVSPDDTPGAILQSFFTKMAKKASLMDIPESQSEQDFVLRVCGRDEYLVGETPIKNFQWVRHCLKNGEEIHVVLDTPPDPALDEVRKEEWPLVDDCTGVTGYHEQLTIHGKDHESVFTVSLWDCDRKFRVKIRGIDIPVLPRNTDLTVFVEANIQHGQQVLCQRRTSPKPFTEEVLWNVWLEFSIKIKDLPKGALLNLQIYCGKAPALSSKASAESPSSESKGKVQLLYYVNLLLIDHRFLLRRGEYVLHMWQISGKGEDQGSFNADKLTSATNPDKENSMSISILLDNYCHPIALPKHQPTPDPEGDRVRAEMPNQLRKQLEAIIATDPLNPLTAEDKELLWHFRYESLKHPKAYPKLFSSVKWGQQEIVAKTYQLLARREVWDQSALDVGLTMQLLDCNFSDENVRAIAVQKLESLEDDDVLHYLLQLVQAVKFEPYHDSALARFLLKRGLRNKRIGHFLFWFLRSEIAQSRHYQQRFAVILEAYLRGCGTAMLHDFTQQVQVIEMLQKVTLDIKSLSAEKYDVSSQVISQLKQKLENLQNSQLPESFRVPYDPGLKAGALAIEKCKVMASKKKPLWLEFKCADPTALSNETIGIIFKHGDDLRQDMLILQILRIMESIWETESLDLCLLPYGCISTGDKIGMIEIVKDATTIAKIQQSTVGNTGAFKDEVLNHWLKEKSPTEEKFQAAVERFVYSCAGYCVATFVLGIGDRHNDNIMITETGNLFHIDFGHILGNYKSFLGINKERVPFVLTPDFLFVMGTSGKKTSPHFQKFQDICVKAYLALRHHTNLLIILFSMMLMTGMPQLTSKEDIEYIRDALTVGKNEEDAKKYFLDQIEVCRDKGWTVQFNWFLHLVLGIKQGEKHSA
B4: D260A: PI3Kγ RBD mutant (protein, UniProt P48736 1-1102, looked up, variant D260A)
Phosphatidylinositol …: MELENYKQPVVLREDNCRRRRRMKPRSAAASLSSMELIPIEFVLPTSQRKCKSPETALLHVAGHGNVEQMKAQVWLRALETSVAADFYHRLGPHHFLLLYQKKGQWYEIYDKYQVVQTLDCLRYWKATHRSPGQIHLVQRHPPSEESQAFQRQLTALIGYDVTDVSNVHDDELEFTRRGLVTPRMAEVASRDPKLYAMHPWVTSKPLPEYLWKKIANNCIFIVIHRSTTSQTIKVSPDDTPGAILQSFFTKMAKKKSLMAIPESQSEQDFVLRVCGRDEYLVGETPIKNFQWVRHCLKNGEEIHVVLDTPPDPALDEVRKEEWPLVDDCTGVTGYHEQLTIHGKDHESVFTVSLWDCDRKFRVKIRGIDIPVLPRNTDLTVFVEANIQHGQQVLCQRRTSPKPFTEEVLWNVWLEFSIKIKDLPKGALLNLQIYCGKAPALSSKASAESPSSESKGKVQLLYYVNLLLIDHRFLLRRGEYVLHMWQISGKGEDQGSFNADKLTSATNPDKENSMSISILLDNYCHPIALPKHQPTPDPEGDRVRAEMPNQLRKQLEAIIATDPLNPLTAEDKELLWHFRYESLKHPKAYPKLFSSVKWGQQEIVAKTYQLLARREVWDQSALDVGLTMQLLDCNFSDENVRAIAVQKLESLEDDDVLHYLLQLVQAVKFEPYHDSALARFLLKRGLRNKRIGHFLFWFLRSEIAQSRHYQQRFAVILEAYLRGCGTAMLHDFTQQVQVIEMLQKVTLDIKSLSAEKYDVSSQVISQLKQKLENLQNSQLPESFRVPYDPGLKAGALAIEKCKVMASKKKPLWLEFKCADPTALSNETIGIIFKHGDDLRQDMLILQILRIMESIWETESLDLCLLPYGCISTGDKIGMIEIVKDATTIAKIQQSTVGNTGAFKDEVLNHWLKEKSPTEEKFQAAVERFVYSCAGYCVATFVLGIGDRHNDNIMITETGNLFHIDFGHILGNYKSFLGINKERVPFVLTPDFLFVMGTSGKKTSPHFQKFQDICVKAYLALRHHTNLLIILFSMMLMTGMPQLTSKEDIEYIRDALTVGKNEEDAKKYFLDQIEVCRDKGWTVQFNWFLHLVLGIKQGEKHSA
B5: Lys-254: PI3Kγ mutant, Lys-254 mutated to Ala (protein, UniProt P48736 1-1102, looked up, variant K254A)
Phosphatidylinositol …: MELENYKQPVVLREDNCRRRRRMKPRSAAASLSSMELIPIEFVLPTSQRKCKSPETALLHVAGHGNVEQMKAQVWLRALETSVAADFYHRLGPHHFLLLYQKKGQWYEIYDKYQVVQTLDCLRYWKATHRSPGQIHLVQRHPPSEESQAFQRQLTALIGYDVTDVSNVHDDELEFTRRGLVTPRMAEVASRDPKLYAMHPWVTSKPLPEYLWKKIANNCIFIVIHRSTTSQTIKVSPDDTPGAILQSFFTKMAAKKSLMDIPESQSEQDFVLRVCGRDEYLVGETPIKNFQWVRHCLKNGEEIHVVLDTPPDPALDEVRKEEWPLVDDCTGVTGYHEQLTIHGKDHESVFTVSLWDCDRKFRVKIRGIDIPVLPRNTDLTVFVEANIQHGQQVLCQRRTSPKPFTEEVLWNVWLEFSIKIKDLPKGALLNLQIYCGKAPALSSKASAESPSSESKGKVQLLYYVNLLLIDHRFLLRRGEYVLHMWQISGKGEDQGSFNADKLTSATNPDKENSMSISILLDNYCHPIALPKHQPTPDPEGDRVRAEMPNQLRKQLEAIIATDPLNPLTAEDKELLWHFRYESLKHPKAYPKLFSSVKWGQQEIVAKTYQLLARREVWDQSALDVGLTMQLLDCNFSDENVRAIAVQKLESLEDDDVLHYLLQLVQAVKFEPYHDSALARFLLKRGLRNKRIGHFLFWFLRSEIAQSRHYQQRFAVILEAYLRGCGTAMLHDFTQQVQVIEMLQKVTLDIKSLSAEKYDVSSQVISQLKQKLENLQNSQLPESFRVPYDPGLKAGALAIEKCKVMASKKKPLWLEFKCADPTALSNETIGIIFKHGDDLRQDMLILQILRIMESIWETESLDLCLLPYGCISTGDKIGMIEIVKDATTIAKIQQSTVGNTGAFKDEVLNHWLKEKSPTEEKFQAAVERFVYSCAGYCVATFVLGIGDRHNDNIMITETGNLFHIDFGHILGNYKSFLGINKERVPFVLTPDFLFVMGTSGKKTSPHFQKFQDICVKAYLALRHHTNLLIILFSMMLMTGMPQLTSKEDIEYIRDALTVGKNEEDAKKYFLDQIEVCRDKGWTVQFNWFLHLVLGIKQGEKHSA

biological target: T1, N-Ras.mant-GMPPNP (Homo sapiens, UniProt P01111); assay: Fluorescence anisotropy titration of PI3Kγ 144-1102 into N-Ras.mant-GMPPNP; assay type: binding; conditions: mutants in the 144-1102 construct, FIG. 2A
T1 construct: fluorescence anisotropy of full length, unmodified N-Ras.mant-GMPPNP
T1 sequence (P01111 whole entry): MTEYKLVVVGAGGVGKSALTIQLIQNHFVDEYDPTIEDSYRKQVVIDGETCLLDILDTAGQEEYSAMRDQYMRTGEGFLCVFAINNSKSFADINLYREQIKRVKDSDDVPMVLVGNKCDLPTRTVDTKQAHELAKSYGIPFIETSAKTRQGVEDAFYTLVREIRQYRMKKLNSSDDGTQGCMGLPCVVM
Experimental: Mant-nucleotides were synthesised as described previously (Jameson and Eccleston, 1997). N-Ras and H-Ras mutants were loaded with mant-GMPPNP as in (Moore et al., 1993), gel filtered into running buffer (20 mM Tris pH 7.5, 2 mM MgCl2, 1 mM DTT), and frozen at −80° C. The concentration of Ras.mant-GMPPNP was determined by measuring the absorbance of the mant group at […] with ε=5700 M^−1 cm^−1 (Hiratsuka, 1983). For binding assays, the 144-1102 human PI3Kγ was titrated into a 1 μM solution of fill length, unmodified N-Ras.mant-GMPPNP. Data were collected with SLM 8000 S and ISS PC1 spectrofluorimeters, set up in the T-format and L-format, respectively, with prism polarizers. All measurements were taken at 20° C. with a λex of 366 nm. Both emission PMTs were fitted with 399 nm cutoff filters. Five measurements of each data point were obtained and averaged. Data were fitted to the binding equation.

**Q.** How did the “effect of PI3Kγ RBD mutation on binding to Ras” value (from here on “effect of PI3Kγ RBD mutation”) turn out when B1 was run?
**A.** tighter-binding

**Q.** With B2 as the molecule, how does the “effect of PI3Kγ RBD mutation” value read?
**A.** reduce binding by up to an order of magnitude

**Q.** How did the “effect of PI3Kγ RBD mutation” value turn out when B3 was run?
**A.** reduce binding by up to an order of magnitude

**Q.** Which “effect of PI3Kγ RBD mutation” value does the source give for B4 here?
**A.** reduce binding by up to an order of magnitude

**Q.** With B5 as the molecule, how does the “effect of PI3Kγ RBD mutation” value read?
**A.** greatly lowers the affinity
